T1: human PTH1R on Saos-2 cells (endogenous) (human, UniProt Q03431 27-593)
T1 sequence (looked up): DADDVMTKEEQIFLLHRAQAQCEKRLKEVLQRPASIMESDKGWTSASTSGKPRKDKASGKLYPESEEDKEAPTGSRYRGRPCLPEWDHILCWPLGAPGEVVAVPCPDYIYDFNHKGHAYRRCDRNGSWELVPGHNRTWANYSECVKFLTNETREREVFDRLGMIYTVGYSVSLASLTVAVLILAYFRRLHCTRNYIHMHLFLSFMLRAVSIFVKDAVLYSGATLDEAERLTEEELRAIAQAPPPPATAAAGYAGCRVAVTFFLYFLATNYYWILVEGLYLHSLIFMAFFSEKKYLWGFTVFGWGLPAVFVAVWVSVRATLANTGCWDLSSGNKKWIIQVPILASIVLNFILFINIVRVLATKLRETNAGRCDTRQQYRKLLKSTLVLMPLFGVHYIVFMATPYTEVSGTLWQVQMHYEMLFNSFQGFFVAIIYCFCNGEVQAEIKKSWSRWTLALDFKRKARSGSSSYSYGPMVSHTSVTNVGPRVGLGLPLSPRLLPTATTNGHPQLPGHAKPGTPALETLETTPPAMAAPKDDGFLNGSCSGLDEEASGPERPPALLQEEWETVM

T2: rat PTH1R on UMR106 cells (rat, UniProt P25961 27-591)
T2 sequence (looked up): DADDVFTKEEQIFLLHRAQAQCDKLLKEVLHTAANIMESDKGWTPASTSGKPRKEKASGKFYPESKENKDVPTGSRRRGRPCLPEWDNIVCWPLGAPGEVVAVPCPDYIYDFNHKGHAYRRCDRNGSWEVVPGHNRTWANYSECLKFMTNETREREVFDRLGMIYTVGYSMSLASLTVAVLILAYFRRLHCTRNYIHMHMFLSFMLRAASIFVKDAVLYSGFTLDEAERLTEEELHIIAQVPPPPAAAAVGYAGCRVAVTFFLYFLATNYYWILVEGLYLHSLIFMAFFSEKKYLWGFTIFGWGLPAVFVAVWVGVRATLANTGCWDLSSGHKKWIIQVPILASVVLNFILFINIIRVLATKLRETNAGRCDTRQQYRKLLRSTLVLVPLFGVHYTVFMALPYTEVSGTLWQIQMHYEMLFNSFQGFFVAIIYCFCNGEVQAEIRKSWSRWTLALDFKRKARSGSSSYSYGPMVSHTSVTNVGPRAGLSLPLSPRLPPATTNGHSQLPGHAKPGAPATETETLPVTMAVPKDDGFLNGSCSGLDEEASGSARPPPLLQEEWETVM

T3: human PTH1R overexpressed on CHO cells (human, UniProt Q03431 27-593)
T3 sequence (looked up): T1 sequence (looked up)

T4: mouse PTH1R overexpressed on CHO cells (mouse, UniProt P41593 27-591)
T4 sequence (looked up): T2 sequence (looked up) with S58P, P497L, T518I, T520N, L523I, A528T

T5: recombinant N-terminal extracellular domain of the human PTH1R receptor (human, UniProt Q03431 27-188, limits assumed)
T5 construct: domain: N-terminal extracellular domain; Bought reagent; also called N-ECD PTH1R; PTH1R N-terminal ECD
T5 sequence (looked up): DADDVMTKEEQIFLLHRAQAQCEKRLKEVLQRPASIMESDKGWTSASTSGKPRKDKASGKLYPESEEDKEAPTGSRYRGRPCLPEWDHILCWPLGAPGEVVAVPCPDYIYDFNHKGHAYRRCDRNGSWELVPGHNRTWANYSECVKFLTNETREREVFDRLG

B1: XPA.85.331 (antibody, V domains shown)
VH: QMQLVQSGAEVKKPGSSVKVSCKASGGTFSSYAISWVRQAPGQGLEWMGGIIPIFGTANYAQKFQGRVTITADESTSTAYMELSSLRSEDTAVYYCARGYVVARLWGQGTLVTVSS
VL: DVVMTQSPLSLPVTPGEPASISCRSSQSLLHIDGFNYLQWYLQKPGQSPQLLVHLGSFRASGVPDRFSGSGSGTDFTLEISRVEAEDVGLYYCMQGLQTPPTFGPGTKVEIK
notes: Light-chain-shuffled variant of XPA.85.012
B2: XPA.85.288 (antibody, V domains shown)
VH: B1 VH
VL: DVVMTQTPLSLSVTPGQPASISCKSSQSLLHIDGKTYLYWYLQKSGQSPQLLIYEVSNRFSGVPDTFSGSGSGTDFTLKISRVEAEDVGVYYCMQSLHFPITFGQGTRLEIK
notes: also called Ab288
B3: XPA.85.327 (antibody, V domains shown)
VH: B1 VH
VL: B2 VL with V2I, S22T, K35N, K44R, S45P, S48P, V56I, T66R
notes: Light-chain-shuffled variant of XPA.85.012; also called XPA.327
B4: XPA.85.346 (antibody, V domains shown)
VH: B1 VH
VL: B2 VL with V2I, S22T, Y41F, S45P, S48P, T66R, V90L, F99L
notes: as for B1
B5: XPA.85.342 (antibody, V domains shown)
VH: B1 VH
VL: ETTLTQSPTFMSASVGDRVTITCQASQDINNFLNWYQQKPGKAPKFLIYDASNLEKGVPSRFSGRGSGTEFTLTISSLQPEDIATYYCQQYRDFPLTFGQGTRLEIK
notes: as for B1
B6: XPA.85.345 (antibody, V domains shown)
VH: B1 VH
VL: B5 VL with T9A
notes: as for B1
B7: XPA.85.347 (antibody, V domains shown)
VH: B1 VH
VL: DIVMTQTPLSLSVTPGQPASISCKSSQSLFHDHGRTHLSWYLQKPGQPPQLLIFEASNRFSGVPDRFSGSGSGTDFTLKISRVEAEDVGVYYCMQGIHLPPAFGGGTKLEIK
notes: as for B1
B8: XPA.85.326 (antibody, V domains shown)
VH: B1 VH
VL: B2 VL with V2I, K35L, S45P, S48P, N58H, P64S, T66K, K79T, F99L
notes: as for B1

Numbering of substitutions follows the chain as printed.

In the first experiment the target is T1, human PTH1R on Saos-2 cells (endogenous). Kind of experiment: cell-based or functional assay.
For the molecule B1, the “fold shift of the PTH (1-34) dose response, M-CSF secretion by Saos-2 cells” value is greater than 10 fold.
On the same count and under the same terms, to B2 belongs greater than 10 fold; to B3, greater than 10 fold.
The same measure, in the same setting: to B4 belongs greater than 10 fold.

The target in another experiment is T2, rat PTH1R on UMR106 cells. Kind of experiment: cell-based or functional assay.
As to B1, the “% inhibition of cAMP accumulation at 1 µM PTH(1-34), 267 nM IgG” value (shortened to “% inhibition … at 1 µM PTH(1-34), 267 nM IgG”) was 42% and the “% inhibition of cAMP accumulation at 1 µM PTHrP(1-34), 267 nM IgG” value was determined as 37%.
The corresponding values for B2 are 73% and 45%.
The like results for B5 were, in that order, 6% and 0%.
The like results for B4 were, in that order, 40% and 31%.

A further experiment has as its target T1, human PTH1R on Saos-2 cells (endogenous). In words: cell-based or functional assay. This is another data set of the same source.
For the molecule B1, the “% inhibition … at 1 µM PTH(1-34), 267 nM IgG” value is 67% and the “% inhibition of cAMP accumulation at 1 µM PTHrP(1-34), 267 nM IgG” value was determined as 72%.
The like results for B2 were, in that order, 79% and 79%.
The like results for B5 were, in that order, 0% and 17%.
Take B4: the “% inhibition … at 1 µM PTH(1-34), 267 nM IgG” value was determined as 72% and the “% inhibition of cAMP accumulation at 1 µM PTHrP(1-34), 267 nM IgG” value worked out at 75%.

For the next experiment, the target named is T3, human PTH1R overexpressed on CHO cells. Kind of experiment: cell-based or functional assay.
Turning to B1, the “IC50, inhibition of PTH(1-34)-induced cAMP accumulation” value came out at 14.2 nM and the “IC50, inhibition of PTHrP(1-34)-induced cAMP accumulation” value worked out at 8.86 nM.
The corresponding values for B6 are 14.2 nM and 12.1 nM.
For B4, the “IC50, inhibition of PTH(1-34)-induced cAMP accumulation (curve does not reach a plateau)” value came to 29.9 nM and the “IC50, inhibition of PTHrP(1-34)-induced cAMP accumulation” value turned out to be 14.6 nM.

The next experiment concerns the target T4, mouse PTH1R overexpressed on CHO cells. Kind of experiment: cell-based or functional assay.
As to B7, the “IC50, inhibition of PTHrP(1-34)-induced cAMP accumulation” value amounted to 2.9 nM.
Same read-out and setting: to B1 belongs 3.2 nM.
The same measure, in the same setting: to B6 belongs 2.53 nM.
On the same count and under the same terms, then B4, with 3.57 nM.

The target of another experiment is T5, recombinant N-terminal extracellular …. Kind of experiment: SPR, IgG captured, ECD injected. The method, then: An anti-human IgG-Fc CMS sensor chip (GE Healthcare) was prepared using standard amine coupling as described by the manufacturer's protocol for the capture Ab on a BIACORE 4000 system (GE Healthcare). Briefly, the chip surface was activated with a 10 minute injection at 10 μL/minute of a freshly mixed 1:1 solution of 0.1 M N-Hydroxysuccinimide (NHS) and 0.4 M 1-Ethyl-3-(3-dimethylaminopropyl) carbodiimide hydrochloride (EDC). Following the activation injection, 15 ug/mL anti-human IgG-Fc antibody in acetate pH 4.5 was injected at 10 μL/minute for 10 minutes to achieve a high density capture surface. 7 minutes of 1M Ethanolamine hydrochloride-NaOH pH 8.5 was injected to block the surface. The NHS, EDC, and Ethanolamine used were from the BIACORE Amine Coupling Kit.
Kinetic Analysis was performed using HBS-EP+(Teknova) with 2.5 mg/mL BSA (Sigma Aldrich, St. Louis Mo.). Antibodies were diluted to 0.5 μg/mL and captured to achieve a surface density of 100 to 200 RU. […] Injections were performed at 30 μL/minute for 240 seconds with a 360 second dissociation time. Regeneration was then performed with one 60 second injection 3M MgCl.
The data were analyzed using BIACORE 4000 Evaluation Software and was double referenced by subtracting both the blank flow cell data and the averaged bracketing blank injections. The data was fit by simultaneously fitting the an off-rate (kd) and on-rate (kₐ), and calculating the KD as KD=kd/kₐ.
(SPR reads the build-up and loss of mass on a sensor chip optically.)
A word on the Kd: it is the free concentration of one partner at which half of the binding sites on the other are occupied at equilibrium, for simple one-to-one binding. In general, koff refers to a measure of how fast the partners let go of each other. As usually defined, the kon is the second-order rate constant of association. On to B8, for which the Kd came to 0.19 nM, the koff is 7.3e-05 s⁻¹ and the kon worked out at 380000 M⁻¹ s⁻¹.
The corresponding values for B7 are 0.87 nM, 0.00077 s⁻¹ and 880000 M⁻¹ s⁻¹.
The like results for B1 were, in that order, 0.22 nM, 0.00035 s⁻¹ and 1.6e+06 M⁻¹ s⁻¹.
The like results for B2 were, in that order, 0.18 nM, 0.00014 s⁻¹ and 780000 M⁻¹ s⁻¹.
As to B6, the Kd was determined as 0.56 nM, the koff is 0.0013 s⁻¹ and the association rate constant (kon) is 2.3e+06 M⁻¹ s⁻¹.
The like results for B3 were, in that order, 0.15 nM, 0.00011 s⁻¹ and 740000 M⁻¹ s⁻¹.
The corresponding values for B5 are 0.52 nM, 0.0012 s⁻¹ and 2.3e+06 M⁻¹ s⁻¹.
The corresponding values for B4 are 0.31 nM, 0.00014 s⁻¹ and 450000 M⁻¹ s⁻¹.

(Values after US20200317817A1 (XOMA US, published 2020).)
